According to the DeepSol protein solubility set:

Experiment: soluble on expression in E. coli; label from the status in PepcDB or PDB records

Sequence	soluble on expression in E. coli
GPGSMEYNARYQVSPRDQFLRKVVVVPYGVLGMQMTLQGGLVRAGSEPDESTFIVDPANLRHIFTTAVGATGASGAIYNMLGLRGPFPDEVVQAISRVCDTKFYKYGERANVIHVVDPDFREGAWSEREAAVELSRAYRNVFHEFVRGDGDVLRVPPLSSGVLSGSLYNQLPIITQSAVAMAFEQLHTFDREYLLRRDKQVELCVFMNREWDMYQNVFKNCTQPSKL	soluble
MGKSLDEQFEAAVWIINALPKNGPIKTSINDQLQMYSLYKQATSGKCDTIQPYFFQIEQRMKWNAWNQLGNMDEAEAKAQYVEKMLKLCNQAEAEHNLMEFLSDPTIADLLPKQNQLREHFATLGRTTVKGFEGETVEINGVSISF	not soluble
MEKDDATASFSPSFSTYSGDRLVEIAERVCYKEKSDAEFEFSTAATSSSGDGGLVFPVFNKNLISGDVSPEKVIPLKDLFLRERNDQQPPQQTYSSSSDEEEEDDEFDSIPSEIYCPWTPARSTADMSPSGGCRKSKSTGSSSTSTWSTKRWRLRDFLKRSKSDGKQSLKFLNPTNRDDDDESSKSKKKVSVSVTVSAHEKFYLRNKAIKEEDKRKSYLPYKQDLVGLFSNIHRYGKTFPPF	not soluble
MTEQSVKNTPQHETQSKPKQKTVKLIIKRQDTSDSKPYEETFEIPYRENLNVIACLMEIRRNPVNIKGEKTTPVVWDMNCLEEVCGACSMVINGRARQSCSAIVDQLEQPIRLEPMNTFPVIRDLQVDRSRMFDNLKRMKAWIPIDGTYDLGPGPRMPEKKRQTAYELSKCMTCGVCLEVCPNVTENNKFVGAQAISQVRLFNLHPTGSMTKDERLNALMGTGGLQQCGNSQNCVNACPKGIPLTTSIAAMNRETTFHMFKSFFGSDHEVE	not soluble
MSLTKIVIIGGVAGGASAAARARRLSEDAEIIMFERGPYVSFANCGLPYHIGGDIKERSNLLLQTPESFLARFNVDVRTMNEVLRINRAAKTITVRNLLDQSEYDENYDFLLLSPGAGPVIPPIPGIQNPLTHSLRNIPDMDKIIQTLQMNKPEHATVVGGGFIGLEMMEAFHHLGIKTTLIEMADQVMTPVDREMAGFAHAEIRAKGIDLRLGAALKSVEYRPAATLPSAESGESLEHKHVEGELDLLLSNGDTLTTDILIMAIGVRPETKLAAEAGLQLGELGGIWVNEQMQTSDPAIYAVGDAVEEKDFVTGKQTLVPLAGPANRQGRMAADNMLGRNESYQGTQGTAICKIFDLAVASTGKNEKQLKREGIAYEKVYVHTASHASYYPGAEVVSFKMLFDPQTGKIFGAQAVGKDGIDKRIDVMAVAQRAGMTVEQLQHLELTYAPPFGSAKDVINQAAFVATNLIKGDAKAIHFDEIDNLTDEQVLLDVRNPMELQNMGYLPGAINIPVDQLRQHMNELPKDKEIVIYCQVGLRGNVAYRQLVNNGFKARNLIGGYRTYKFAKAEGHHHHHH	soluble
MGSDKIHHHHHHMRRGELNERRDAIIRLLCAQDELSAQDLAARLNVSVQTIRTDLRELDEAALVQRRHGRVRLRQPSENIGYAPRMSVARSEKQQIAMAVKPMIEDGSRVALGTGTTVEACARQLAASHRDLFVATNNIHAVIALQGASGVSVSLAGGAVRLRDLDFVGAASRAFFADYMVDIAIFSCGGLSLSGDVLDYNTDEIAAREAISTCATRRVLVVDREKFGRALPCRKHMIWDYDVVVTGADFPREIMRKCQEAGCEVLRVATDERPLRA	not soluble
MTVSSSAWMPRLISQQILSEYVKSLEVEADKVVIPGQNTPVFSWDRDGNGNLSIDTPLLKVRGESLATQADLTTISLTPGPKGELWQTSVERLDIKVDKHISLTFKNGVRID	not soluble
MIKLKNVTKTYKMGEEIIYALKNVNLNIKEGEFVSIMGPSGSGKSTMLNIIGCLDKPTEGEVYIDNIKTNDLDDDELTKIRRDKIGFVFQQFNLIPLLTALENVELPLIFKYRGAMSGEERRKRALECLKMAELEERFANHKPNQLSGGQQQRVAIARALANNPPIILADEPTGALDSKTGEKIMQLLKKLNEEDGKTVVVVTHDINVARFGERIIYLKDGEVEREEKLRGFDDR	soluble
MPEVRAERYIPAPPERVYRLAKDLEGLKPYLKEVESLEVVAREGARTRSRWVAVAMGKKVRWLEEEEWDDENLRNRFFSPEGDFDRYEGTWVFLPEGEGTRVVLTLTYELTIPIFGGLLRKLVQKLMQENVESLLKGLEERVLAASS	soluble
MDPAKVNTVDEDIKFKEVPGITNILLLSSDARPGEDVSRSDSIMILTIDNINKKLKVTSLMRDMLVKIDGHGEEKLNHAFAYGGPTKTIETIQNNFGIKLNNYVIVDFNAFVKVIDAINGIEVTVKDYELDELNKYILDGGGSEEDLLPSPGTYNLNGYQALSYARIRKVGNGEYERTERQRAVLQIALEKVKDMSTVKLVSLLNELFPYVKTNISLGNAMDYGFTALNVGKKCNFEIEQFRVPLDSISKGGIINNKGWVFVIDKVETSKALQEFIFNDNKNYEPDTSNFDSIIEQYFNDYDIKDDTTHPLEHHHHHH	soluble
MSLKILYISQEIFPYLPETDISVVSRKLPQTIQERGNEVRIFMPRYGIINERRNQLHEVIRLSGINMIINDNDHPLIIKVASIQSARMQVYFIDNDDFFKRKTMYDIKPKQENDNDERAIFFVRGALEAIKKLRWIPDVIHCHGWFTALAALYLKKMYADDPCLQKAKVVYSVYDDAGQGVIPETLFGKLGFDKITPDDLSVMEQSSDYLALNRLAIRYADGVIQGSETIAPELTDYISSLEGKAFLPYQGKEDYEEAFDNFYSDLLTANEGHHHHHH	soluble
MKSASDPFDLKRFVYAQAPVYRSVVEELRAGRKRGHWMWFVFPQLRGLGSSPLAVRYGISSLEEAQAYLQHDLLGPRLHECTGLVNQVQGRSIEEIFGPPDDLKLCSSMTLFARATDANQDFVALLAKYYGGGEDRRTVALLAVT	soluble
MTKLGYVMTKSSAKNFKIYINGSAKGFKNIIISGAKAWNPSPYLNTVSIGNDVRPNYTVSSSGTNKGSVLAVCNTTYYKSNKLISKNEITLYKGFRSLSTNHKIETIVHEFGHGFGLGHVKTKNAIMLDKGFINKTKPQTDDFNGIKALYKLEHHHHHH	soluble
MSLALPDFEFSFATRDEFDRKPVAKKLINILNSNIDISPMVIDGSWGTGKTEFCRKTIKLINDEFNETLICAYIDAFEADHTNDPLIPIVAAISELIEDSSKKIAFLNKAKAIFRYGLKASARASVAWLLRSNTETLDQEFQKELEKAVDEGSQNLVDGVITDYQEAKKDINSLKLILQDLTVEKKLVIFIDELDRCKPDFAIAIIEKIKHVFDVANVKFILVTNYTQMKASVNHCYGLALDAHRYLDKFIKFKFYLPTDKYSNKRKQHVSYHYADQLIRNSDILKAHSRYYLDSRFDLLNNLIIINELSLREISNFILYLELFHTLKSDQFAPDKWYHLSIFIIFILYFKPELREKIRKKDILASELCKFLGINSHIKAKELTHDKDGVSRDIATLIMIFLNDNSIPGYQSDDEEDFKGWLSKLALSTNVGYLELITYIEQFINDIFNEFQFVTKAAALEHHHHHH	soluble
MGHHHHHHSHMVPGGKPILCPRRTTAQLGPRRNPAWSLQAGRLFSTQTAEDKEEPLHSIISSTESVQGSTSKHEFQAETKKLLDIVARSLYSEKEVFIRELISNASDALEKLRHKLVSDGQALPEMEIHLQTNAEKGTITIQDTGIGMTQEELVSNLGTIARSGSKAFLDALQNQAEASSKIIGQFGVGFYSAFMVADRVEVYSRSAAPGSLGYQWLSDGSGVFEIAEASGVRTGTKIIIHLKSDCKEFSSEARVRDVVTKYSNFVSFPLYLNGRRMNTLQAIWMMDPKDVREWQHEEFYRYVAQAHDKPRYTLHYKTDAPLNIRSIFYVPDMKPSMFDVSRELGSSVALYSRKVLIQTKATDILPKWLRFIRGVVDSEDIPLNLSRELLQESALIRKLRDVLQQRLIKFFIDQSKKDAEKYAKFFEDYGLFMREGIVTATEQEVKEDIAKLLRYESSALPSGQLTSLSEYASRMRAGTRNIYYLCAPNRHLAEHSPYYEAMKKKDTEVLFCFEQFDELTLLHLREFDKKKLISVETDIVVD	soluble
